From paper PMC11714219

B1: Estrogen receptor alpha, full length, ECFP-tagged, as in the ER βα FL biosensors with the linker [not stated] / Estrogen receptor beta (ER β), full length, mNeonGreen-tagged, as in the ER βα FL FRET biosensor [not stated] (parent)
chain 1: MTMTLHTKASGMALLHQIQGNELEPLNRPQLKIPLERPLGEVYLDSSKPAVYNYPEGAAYEFNAAAAANAQVYGQTGLPYGPGSEAAAFGSNGLGGFPPLNSVSPSPLMLLHPPPQLSPFLQPHGQQVPYYLENEPSGYTVREAGPPAFYRPNSDNRRQGGRERLASTNDKGSMAMESAKETRYCAVCNDYASGYHYGVWSCEGCKAFFKRSIQGHNDYMCPATNQCTIDKNRRKSCQACRLRKCYEVGMMKGGIRKDRRGGRMLKHKRQRDDGEGRGEVGSAGDMRAANLWPSPLMIKRSKKNSLALSLTADQMVSALLDAEPPILYSEYDPTRPFSEASMMGLLTNLADRELVHMINWAKRVPGFVDLTLHDQVHLLECAWLEILMIGLVWRSMEHPGKLLFAPNLLLDRNQGKCVEGMVEIFDMLLATSSRFRMMNLQGEEFVCLKSIILLNSGVYTFLSSTLKSLEEKDHIHRVLDKITDTLIHLMAKAGLTLQQQHQRLAQLLLILSHIRHMSNKGMEHLYSMKCKNVVPLYDLLLEMLDAHRLHAPTSRGGASVEETDQSHLATAGSTSSHSLQKYYITGEAEGFPATV
chain 2: MDIKNSPSSLNSPSSYNCSQSILPLEHGSIYIPSSYVDSHHEYPAMTFYSPAVMNYSIPSNVTNLEGGPGRQTTSPNVLWPTPGHLSPLVVHRQLSHLYAEPQKSPWCEARSLEHTLPVNRETLKRKVSGNRCASPVTGPGSKRDAHFCAVCSDYASGYHYGVWSCEGCKAFFKRSIQGHNDYICPATNQCTIDKNRRKSCQACRLRKCYEVGMVKCGSRRERCGYRLVRRQRSADEQLHCAGKAKRSGGHAPRVRELLLDALSPEQLVLTLLEAEPPHVLISRPSAPFTEASMMMSLTKLADKELVHMISWAKKIPGFVELSLFDQVRLLESCWMEVLMMGLMWRSIDHPGKLIFAPDLVLDRDEGKCVEGILEIFDMLLATTSRFRELKLQHKEYLCVKAMILLNSSMYPLVTATQDADSSRKLAHLLNAVTDALVWVIAKSGISSQQQSMRLANLLMLLSHVRHASNKGMEHLLNMKCKNVVPVYDLLLEMLNAHVLRGCKSSITGSECSPAEDSKSKEGSQNPQSQ

Variants of: B1
Assay: live-cell FRET biosensor imaging (ER βα heterodimerization, FRET/ECFP emission ratio)
Conditions: with Estrogen receptor beta (ER β), 1 µM 17β-estradiol, value read at the end of the time course (30 min after E2), α mutant n = 12, WT n = 24, read off a plot, scale: R/R0

| Variant | response |
| --- | --- |
| chain 1 MTMTLHTKASGMALLHQIQGNELEPLNRPQLKIPLERPLGEVYLDSSKPAVYNYPEGAAYEFNAAAAANAQVYGQTGLPYGPGSEAAAFGSNGLGGFPPLNSVSPSPLMLLHPPPQLSPFLQPHGQQVPYYLENEPSGYTVREAGPPAFYRPNSDNRRQGGRERLASTNDKGSMAMESAKETRYCAVCNDYASGYHYGVWSCEGCKAFFKRSIQGHNDYMCPATNQCTIDKNRRKSCQACRLRKCYEVGMMKGGIRKDRRGGRMLKHKRQRDDGEGRGEVGSAGDMRAANLWPSPLMIKRSKKNSLALSLTADQMVSALLDAEPPILYSEYDPTRPFSEASMMGLLTNLADRELVHMINWAKRVPGFVDLTLHDQVHLLECAWLEILMIGLVWRSMEHPGKLLFAPNLLLDRNQGKCVEGMVEIFDMLLATSSRFRMMNLQGEEFVCLKSIILLNSGVYTFLSSTLKSLEEKDHIHRVLDKITDTLIHLMAKAGLTLQQQHQRLAQRLLILSHIRHMSNKGMEHLYSMKCKNVVPLYDLLLEMLDAHRLHAPTSRGGASVEETDQSHLATAGSTSSHSLQKYYITGEAEGFPATV [chain 1 L507R] | 1.07 |
